Residue numbers refer to the chain shown, from its start.
B1: 185F2G12 (antibody, V domains shown)
VH: QAYLQQSGAELVRSGASVKMSCKASGYTFTSYNMHWVRQTPGQGLEWIGYIYPGNGGTNYSQKFKGKASLTADTSSTTAYMQISSLTSEDSAVYFCATGRGFAYWGQGTLVTVSA
VL: DIVMTQSPSSLTVTAGEKVTLSCKSSQSLFNTGNQKNYLTWYQQKPGQPPKLLIFRASTRESGVPDRFTGSGFGTDFTLTISSVQAEDLAVYYCQNDFSYPLTFGAGTKLELK
notes: mouse hybridoma mAb
B2: 244A1B8 (antibody, V domains shown)
VH: QAYLQQSGAELVRSGASVKMSCKASGYTFTSHNIHWVKQTPGQGLEWIGYIYPGNGAPNYNQKFRGKATLTADTSSSTAYMQISSLTSEDSAVYFCARDYYGNSFVYWGQGTLVTVSA
VL: DIVMTQSPSSLTEKAGEKVSMSCKSSQSLLNSGNQKNYLTWYQQKPGQPPKLLIYWASTRESGVPDRFTGSGSGTDFTLTISSVQAEDLAVYYCQNDYRYPFTFGAGTKLELK
notes: mouse hybridoma mAb
B3: 241H10A1 (antibody, V domains shown)
VH: QVQLQQSGAELVKPGASVKLSCKASGYTFTSFGINWLRQRPEQGLEWIGWIFPGDGNSKYNENFKGKATLTTDKSSSTAYMQVTRLTSEDSAVYFCARFYYGNSFANWGQGTLVTVSA
VL: B2 VL with E13V, K14T, S20T, S58A, R99F, A106G
notes: mouse hybridoma mAb
B4: 194D3B2 (antibody, V domains shown)
VH: QAYLQQSGAELVRSGASVKMSCKASGYPFTSYNMHWVKQTPGQGLEWVGYIYPGNGGTNYNQKFRDKATLTADTSSSTAYMQISRLTSDDSAVYFCLTGRGFAYWGQGTLVTVSA
VL: B2 VL with T12I, E13V, K14T, A15P, K18R, S20T, W56R, R99S, F102L, A106I
notes: mouse hybridoma mAb
B5: 232F1E4 (antibody, V domains shown)
VH: QVQLKESGPGLVAPSQSLSITCTVSGFALTTYGVSWVRQPPGKGLEWLGVIWGDGSTHYHSALISRLSIRKDNSKSQVFLKLNSLQTDDTATYYCAKPGRGNAMDYWGQGTSVTVSS
VL: B2 VL with T5S, E13V, K14T, S20T, P49S, V84M, R99I, F102L, K109M
notes: mouse hybridoma mAb
B6: 219F9B8 (antibody, V domains shown)
VH: B1 VH with K19R, R38K, G57H, S61N, S69T, T77S
VL: B2 VL with E13V, K14T, S20T, W56R, R99S, F102L, A106V
notes: mouse hybridoma mAb
B7: 203A6C9 (antibody, V domains shown)
VH: QVQLKQSGPGLVQPSQSLSITCTVSGFSLTRYGVHWVRQSPGKGLEWLGVIWSGGNTDYNAAFISRLNIRKDNSKSQVFFKMNSLKPNDTAIYYCARAAYFGNSFDYWGQGTTLTVSS
VL: B2 VL with T12P, E13V, K14T, S20T, E61D, D97N, R99I, F102L
notes: mouse hybridoma mAb
B8: 213B10A4 (antibody, V domains shown)
VH: B1 VH with L4V, K23R, R38K, N59Y, S61N, S69T, T77S
VL: B1 VL with L21M, F30L, T32S, F55Y, F98Y
notes: mouse hybridoma mAb
B9: 273C10E5 (antibody, V domains shown)
VH: B3 VH
VL: B2 VL with E13V, K14T, S20T, S58A, T69A, R99F
notes: mouse hybridoma mAb
B10: 250F4G1 (antibody, V domains shown)
VH: B2 VH with I34M, A57R, P58T, R65K, A97T, V106A
VL: B2 VL with A15V, K18R, L30F, R99W
notes: mouse hybridoma mAb
B11: 258D11C4 (antibody, V domains shown)
VH: B2 VH with T30S, I34M, A57G, P58T, R65K, A97T, V106A
VL: B2 VL with K18R, L30F, E61Q, R99W, Y100F
notes: mouse hybridoma mAb
B12: 226A4B5 (antibody, V domains shown)
VH: QAYLQQSGAELVRSGASVRMSCKASGFTFTSYNIHWVKQTPGQGLEWIGYIYPGSGGSNYNQKFMGKATLTADTSSSTVYMQISSLTSEDSAVYFCATGRGFAYWGQGTLVTVSA
VL: B1 VL with L21M, T32S, F55Y, F73S, F98Y, A106T
notes: mouse hybridoma mAb
B13: 259C6F7 (antibody, V domains shown)
VH: B2 VH with T30S, A57D, P58T, R65K
VL: B2 VL with T5I, D97A, Y100F
notes: mouse hybridoma mAb
B14: 252F1B10 (antibody, V domains shown)
VH: B2 VH with I34M, A57G, P58T, R65K, S84N, A97T, V106A
VL: B2 VL with K18R, L30F
notes: mouse hybridoma mAb
B15: 257G7B9 (antibody, V domains shown)
VH: B2 VH with I34L, A57N, P58T, R65K, A97T, V106A
VL: B2 VL with K18R, L30F, D97N, R99W, Y100F
notes: mouse hybridoma mAb
B16: 250F4G4 (antibody, V domains shown)
VH: B2 VH with I34M, A57R, P58T, R65K, A97T, V106A
VL: B2 VL with A15V, K18R, L30F, R99W
notes: mouse hybridoma mAb
B17: 267B2C5 (antibody, V domains shown)
VH: B5 VH with S19A, A28S, L82V, A96G
VL: B2 VL with E13V, K14T, S20T, P49S, R99I, F102L, A106G, K109T
notes: mouse hybridoma mAb
B18: 234A10F7 (antibody, V domains shown)
VH: B3 VH with V83L, N107Y
VL: B2 VL with E13V, K14T, A15T, E17Q, S20T, S58A, R99F
notes: mouse hybridoma mAb
B19: 256C3D3 (antibody, V domains shown)
VH: B2 VH with T28A, I34M, Y52S, A57Y, P58T, S84G, A97T, V106A
VL: B2 VL with K18R, L30F, D97N, R99W, Y100F
notes: mouse hybridoma mAb
B20: 267H5F12 (antibody, V domains shown)
VH: B2 VH with I34M, Y52S, A57Y, P58T, A97T, V106T
VL: B2 VL with K18R, L30F, D76E, D97N, R99W, Y100F
notes: mouse hybridoma mAb
B21: 260G9E8 (antibody, V domains shown)
VH: B2 VH with Y3D, T30A, I34M, A57G, P58T, N59K, R65T, S84T, V106A
VL: B2 VL with S22R, E87D, R99M, Y100F
notes: mouse hybridoma mAb
B22: 259C6F4 (antibody, V domains shown)
VH: B2 VH with T30S, A57D, P58T, R65K
VL: B2 VL with T5I, D97A, Y100F
notes: mouse hybridoma mAb
B23: 262H9H6 (antibody, V domains shown)
VH: B2 VH with I34M, Y52S, A57Y, P58T, A97T, V106T
VL: B2 VL with K18R, L30F, D76E, D97N, R99W, Y100F
notes: mouse hybridoma mAb
B24: 198F10B8 (antibody, V domains shown)
VH: B4 VH with K19R, P28T, T30S, V48I, R65K, Y80F, M81I, R85S, D89E
VL: B1 VL with K18R, L21M, T32S, F55Y, F73S, F98Y, A106V
notes: mouse hybridoma mAb
B25: 257F1E11 (antibody, V domains shown)
VH: B2 VH with G42R, A57G, P58T, R65K, A97T, V106A
VL: B2 VL with K18R, L30F, V91I, R99W
notes: mouse hybridoma mAb
B26: 257G7F7 (antibody, V domains shown)
VH: B2 VH with I34L, A57N, P58T, R65K, A97T, V106A
VL: B2 VL with K18R, L30F, D97N, R99W, Y100F
notes: mouse hybridoma mAb
B27: 277F1F8 (antibody, V domains shown)
VH: B2 VH with A9P, I34M, Y52N, A57G, P58N, R65K, V106A, Y107F
VL: B2 VL with K14T, Y100F
notes: mouse hybridoma mAb
B28: 257B1G9 (antibody, V domains shown)
VH: B2 VH with I34M, A57G, P58T, R65K, A97T, V106A
VL: B2 VL with K14R, K18R, L30F
notes: mouse hybridoma mAb
B29: 182D10F1 (antibody, V domains shown)
VH: B1 VH with T30S, R38K, S61N, S69T, T77S, A97L, A103T
VL: B1 VL with L21M, S22N, T32S, F55Y, F73S, F98Y, A106V
notes: mouse hybridoma mAb

Target: T1, human Claudin18.2 (human)
T1 construct: also called CLDN18.2
Experiment: cell ELISA, Claudin18.2-expressing HEK293T cells
Procedure: To determine protein binding EC₅₀ by Cell ELISA, 96-well U-bottom microplates were pre-blocked with blocking buffer (5% MPBS, 1×PBS with 5% skim milk) overnight at 4° C. On the next day, the Claudin18.2-expressing HEK293T stable cell line was suspended at 1.5×10⁶ cells/ml in blocking buffer, added to the plate in 100 μl/well and incubated at room temperature for 1 hour.
Raw data were plotted with GraphPad Prism v6.02 software with four parameters, best-fit value program to analyze the EC₅₀.

Binder	EC50 [nM]
B1	1.73
B2	~0.439
B3	1.66
B4	1.09
B5	0.966
B6	1.16
B7	0.916
B8	2.33
B9	0.181
B10	0.415
B11	~0.406
B12	1.59
B13	~0.443
B14	0.53
B15	1.02
B16	0.199
B17	0.895
B18	0.857
B19	0.729
B20	~0.513
B21	0.821
B22	2.32
B23	0.879
B24	1.82
B25	57.8
B26	~0.413
B27	~4410
B28	0.948
B29	1.65

From patent US20220073643A1 (NANJING GENSCRIPT BIOTECH, published 2022)
